In publication PMC4773095:

Molecular target: NsrR, response regulator from Streptococcus agalactiae COH1 (full length) (Streptococcus agalactiae COH1)
Test: SEC; Superdex 200 GL 10/300, buffer C (25 mM Tris pH 9.0, 50 mM NaCl, 2 mM PMSF); column calibrated with proteins of known molecular weight

“NsrR, response regulator from Streptococcus agalactiae COH1 (full length) (natural protein)” was tested, and the stoichiometry N was 2.
